Test: label from the status in PepcDB records

Row | Sequence | protein production
1 | MPDVDKIIQFKREILDNLSNERLSKESFGLSMDVKLPEPGESIVPWIGEDLALDETDDELDLNFMLDALENEDKLSYSDIFNDNLPLSGSNLRVDVDSELSTLNNDFDVSSSDSFENNIDKVLDDNSIDLEIASKLDFDNLINSPELSSEELINNQGNNNFFEANNDSSVLGDSNFLQSNEFNIDDAVNGKNQTDEQSEMFVGDSLNLSADEDDFENVIDDFKFLEYDQNANFKRFEFKVNYPLFLKHLNSYPRNLRIAIAEALTKENVSRFKLEALIDLVEKNKKRLKFIAKFVGDIVGRSIKLPVIYFKAEEFSKLQQKLSYRVSRALLPLIKIASFFVVLVLVSLYLIVDVIFFYVASESKYKEGIESIYANKRDLAKSIFRDAYYIRPDDKWFINYAKAFEDVRDFDSAEEKYEELFTIEPFSKNSTNRRRKKFNKEGYISYASMKIGLGEHSEANSILDEVISYDLYDYDALVLKGDNYFKWAKTNSNYYKDSINSYTVVLSKYGQKKEILFKLFNAYIEANLDTESDNVNNFIKSNEILDIDEVVYTKYAKKLVDKYISFVTYNQRANNLAINLNYLNGQTNLLNKEFSDFKRNDGRTIFKLDNNVNMNSEIEYILRKILNKNPNYDKALFESGRYSYYIGDFKKAEVYLLKALNSFRHKNSIEDAGDKILAYKILADIYEKTRDSLRASNIIGLALSDYSFYKKHNLIKGSKEISSIYEKQGDILRSLNDFKSAISSYKLAINEGVDYPDVYYKVGLLSYRENNYDDALKYLFKVESMAGFSSSNEVLNTIALTLYKIGDFLASRSYYLRVMQNLELEKANVLNFNPKENDYHKTLLLKEIETYNNLGVVEVMASFSSIRDTKLFNSGVSNLSESAKIFDILNRDEDMVKSVKKDLASLNLRNIFKNSFSKSNVLFYENLSEKL | failed
2 | MPEASSPASEKSLSRLLLELLWQLAALLIPIFFVTLLPPPAALGVLLGCAAAMTLAARLGWPKTARGLARLMISAAFGLGFSLGRALPAYWDIAAAFTSIFAGLAAVSHLERRLGLVQPSPTPISAWGGNEPQQTPEGQPIRVFNHGEIAMGGPTYCDYLFPDGVLLQGLGSSARFSSDGRYFAAPLPSRQHWGLAILDREQRRLYRCNREHFWELDAFSADTLSGRHSPLVDNGQHQASLNSLLQEAECVELVAVADLWLEPGQWLEALARQDFEESAPHGSHRLHASLALPASLRALEQPLEPLRTPPYRISIDGQPSGLLLRADAPRIWRDDGRALACIAHEQAQPEAACCWLWQADKGWRALPAPWVASHAEPSFYPGPLLSLDRHWLGYSAYLDLAEADHGRYGYRLHSTHSDSETGVGHDRQGCLQVAPLPLTRTQLLQPLDGSGARGESRIQSQPLLGEQRALFSWLTDNPRGLGAYRCQIGTWQLPGCWLLDHRVSDCQRYLALLPWSETLELAPQVVVADLQQQRLIYSPALLAARLLDFRQGRLSLAVLVGRLDPDHASSPLQRFNRPAPAPEHAAAFCTEGPASQPCYERQDWLVIDDQLQPVAPWRLVDRPQAAVAEGDFIQPAPDGRDAAWLFGSETEYADSWLRETSPRLGGHLLTASGCAVGDLAPSLIWSTDARYLALTRLRLGAGDPQQGYRAWQLLLLDVQERSLRIAPDWLRHRPLFQHFDARGLALQLFERDWQAADDPDPGRSLEWALEDLLRLPAEPLREHQGLWLSAADWPQARAWQALRRPAHPAFRAGA | failed
3 | MPEEVSNEIEAPSLHTPEEVLLHYWGYPSFRPVQLPIIESVLAGKDTLGLLPTGGGKSITFQVPGLLLPGLTLVVTPLIALMRDQIMGLRQKGIKATAVHAGMTREQIITTLDNCIYGRYKFLYVSPERLGSELFLSRLHALRVSLLVVDECHCISQWGYDFRPAYLSIADIREALPDVPVLALTATATRPVIDDIQRILRFPEPNVLRKSFFRPNLSYSIRRTADKETMLLHILSRVDGSAVVYCRNRDKARDLARFLGENGFSADFYHAGLNHVTREIRQKSWMEGETRIIVCTNAFGMGIDKPDVRLVLHMEMPSSPEEYFQEAGRAGRDGERAYAVLLAGEDDIFNLKRRVSNEFPPREYIATVYNRICNYLQIGEGEGFERSFDFDIDAFCRNFRMFPTQVLAAIRILDVAGIWEYREEKTRSRLTIQVQRDELYRMRSEQASDSVLTALMRTYDGLFADYVSIVESELAEKTGLSVDQVYQQLLLLNKAGIVNYIPQKNLPRIYFLTRREDAELLQIPRAAYEDRRDRLKARIDQSLRYIEEENTCRSRMLLAYFGEEQSHNCKLCDVCLRRKDGELHHHEVDDLLHFLEQRLTEETPYVLIADICRELHHHPDVVLKAIRFVMKESWQYSTDGDTVFLTHKLPGGLNL | failed
4 | MPEGHRATAIYFRHLLLIRVEIENIVNTLAICRHTFYISSLSLPCNLNKLIIMENLQSNLFYSLAGVAAVASLASCTNKQKTTEQKPLNIVYIMTDDHTAQMMSCYDTRYMETPNLDRIAADGVRFTQSFVANSLSGPSRACMITGKHSCANKFYDNTTCVFDSSQQTFPKLLQKVGYQTALVGKWHLESLPSGFNYWQIVPGQGDYYNPAFITQDNDTIQKHGYITNLITDDAIDWMENKRDPEKPFCLLIHHKAIHRNWMADTCNLALYEDKTFPLPDNFFDDYEGRPAAAAQEMSIVKDMDMIYDLKMLRPNEKSRLRSLYERFLGRMDEGQRAAWDKFYAPIIDDFYKQNLTGKELANWKFQRYMRDYMKTVKSLDDNVGRVLDYLKEKGLLDNTLVVYTSDQGFYMGEHGWFDKRFMYEESMRTPLIMRLPKGFDRRGDITEMVQNIDYAPTFLELAGAEIPADIHGVSLLPLLKGEHPKDWRKSLYYHFYEYPAEHMVKRHYGVRTERYKLIHFYNDINWWELYDMQADPSEMHNLYGEAEYEPVVKELKDELLKLQEQYNDPVRFSPERDKE | failed
5 | MPEGLATAQAKYNGAAGRAFVEGLPALAAGFLERWELRLDGPSMHGWAALVLPVVRRDGTGAVLKLQILDAETEGEPLALRVWDGDGAVRLLDHDPATGTMLLERLDAGRMLSHVADSREAVLVIARLLAHLTATPAPPGVRRLGDIARGMLERTPGTLERIPDPADRRLVADCAAAVREVVDEPGDRLLHWDLHYENVLAADRAPWIAIDPKPLAGDPGFDLLPALDNRYDPGETRWRFDALTDVLGLDRERARAWSLGRVLQNSLWNVEDGDPLETEQMEIGRLLRDL | failed
6 | MPEITLKVDSAYPEDQGNGKARLDPSAMQALNVSPGDLVRITGKTSTVAKVWRSFESDWNMEKIRIDKYTRANASVNPGDRVTVEKVEEEIPATSVTLVSPSEISAAFPDEEDDYLISLINFPVSLDDIIPIKTFHPGPPLEFKVSAIEPENACILNKMTELVFNDDDEFDGTKAITYEDIGGLKGELKRVREMIELPIRHPELFETMGIEPPKGVLLYGPPGTGKTLIAKAVANESGAHFISIAGPEIISKYYGESEQKLREIFEEAEEEAPSIIFIDELDSIAPKREDVNGEVERRVVAQLLTMLDGITDRGQVIVIGATNRPDAIDPALRRPGRFDREIEIGVPAEADRMEILQIHTKDMPFEGMAKLKELRSSEPSETVLEKALADYEASRDKLLWMLASQAKGFVGADLAALAREAAIRALRRQIDVADIDNEKIPEEVLRKLEVTTSDFILASREVAPSAMREIALETADVSWTDIGGSRDAVRDVRESVEFPLTRKEVFAQLGIRPPKGVLLYGPPGTGKTMIAKAVAHESGANFIAVKGPELLSKWVGESEKAVRDIFKKARQVAPAIIFFDELDSLTPSRGASDGSRTTENVLNQILTEMDGIEELNDVMILAASNRPDIIDPALLRSGRFDRLVYISEPEEADRKEILAVHMQNMPIEGSSFDEAVKEVSGLNEASLESLGAKFSGKSVTIKQIKTAAGKYTKGTPLSLIEERRRLAAVLRQHAVTLSDPEKTKLIRQLAEDTAGYVGSDLEGLCREAAMHALRNQANVVTADDFAEARKKIHPTMNERVREYYISISQRFKGGLPKEAQNLIEYQ | failed
7 | MPEPHAVLYVTNELSHIVKNEFLPIWKLTGDESLNDLWLENGKYATDVYAYGDVSKWTIRQLRGHGFIFISTHKNVQLADIIKTVDVRVPREVARSHDMKAFENEIGRRRIRMRKGFGDALRNYAFKMAIEFHGSEAETLNDANPRLHKIYGMPEIPPLYMEYAEIGTRFDDEPTDEKLVSMLHYIVYSAEEVHYIGCGDLRTLMQFKKRSPGRFRRVLWHVYDPIAPECSDPNVIVHNIMVDSKKDILKHMNFLKRVERPFIWDVSSDRSQMNDHEWETTRFAEDRLGEEIAYEMGGAFSSALIKHRIPNSKDEYHCISTYLFPQPGADADMYELRNFMRLRGYSHVDRHMHPDASVTKVVSRDVRKMVELYHGRDCGSFLKKRLFEHLHIVRKNGLLHESDEPRADLFYLTNRCNMGLEPSIYEVMKKSVIATAWVGRAPLYDYDDFALPRSTVMLNGSYRDIRILDGNGAILFLMWRYPDIVKKDLTYDPAWAMNFAVSLKEPIPDPPVPDISLCRFIGLRVESSVLRVRNPTLHETADELKRMGLDLSGHLYVTLMSGAYVTDLFWWFKMILDWSAQNREQKLRDLKRSAAEVIEWKEQMAERPWHVRNDLIAALREYKRKMGMREGASIDSWLELLRHL | not failed
8 | MPERVKRKRYALVGTGNRGTTMWGRELLAGWSDYVELVGICDLNLMRAERARAMMGSNAPLYDDFDRMMVEQRPELVIVCTPDDTHDDIIIRALEGGADVISEKPMTTTPEKIDRIRAAEAKSGRRVDVSFNYRFSPTAARIKELIDDGAIGTVTSVDFHWYLDNQHGADYFRRWHAFTEHSGSLFVHKATHHFDLLNWYLDSDPVEVKGFGQLLHYGKNGPFRGTRCRTCPHKDECDYFMDLGADPFLDALYEDPSSIDGYMRDACVFREEIDIPDTMSASIRYASGVQVSYSLNTYMPIEGHHIAFNGHKGRIEMRQYEKQPWAEPPADEILVVKSFGGGVERIWVPHEPGGHYGGDNRMRDMIFKPGSNDRLRQRAGSRAGAMSVLCGVAALKSARDGGSQPIKSLPL | failed
9 | MPESYWEKVSGKNIPSSLDLYPIIHNYLQEDDEILDIGCGSGKISLELASKGYSVTGIDINSEAIRLAETAARSPGLNQKTGGKAEFKVENASSLSFHDSSFDFAVMQAFLTSVPDPKERSRIIKEVFRVLKPGAYLYLVEFGQNWHLKLYRKRYLHDFPITKEEGSFLARDPETGETEFIAHHFTEKELVFLLTDCRFEIDYFRVKELETRTGNKILGFVIIAQKLLEHHHHHH | not failed
10 | MPEVVFYPQNKSINVEEGTTILQAARSAGVIIESPCNGTGTCGKCKVRLDEKSLPNVLAKSRHYLSKEEEEQGYVLACETQITGDIKVELGENKQNGTLKILSRGHSFNIDLKPFIRKEYFVHEDVTKVFAGKEQLGIEAGDTTKENYGAVVDIGTTTLVASIVNLNNGDEIGTSSALNPQAVHAQDVLSRIKFSSDADGLKVMHSELTDKINSMIGKIALRAGISKEHIYEIVFSGNTCMLHLASNTCPESLGKYPYTPKISGAAYLDAAKYNIDISPFGIIYLPPIISAYVGADIVSGILASQLHEKDGVILFVDIGTNGEMVLASCGNLSATSTAAGPAFEGMNITCGMRAGEAAIEFFEIEEQGSINIKVIGETEAAGICGSGLLDMVGEFAAHGVIKKNGQFIDPESENVLHPKLAERLVRQDGKWIFKVTDKVFLSQKDIRQVQLAKGAVRAGIEFLLENKGVRASDVDKVLIAGSFGYHLREKSLINIGLLPKEFEGKVEFVGNTSLSGAKAFLLNQTYREKMKETVKSVEVLELANYKDFDRVFVRCLSFLEHHHHHH | failed
11 | MPFSKNLENLTAPFKRIKNRSLVLALGFLILTFCLLLFLILSDVSRLISGKDFFYVIQSHPKQTLIEDENYFYANKGLYKTNKEAFLRVYKIPESMPIERRENLSKVSKIFLALLFFISSMLFGIFWRLPKRLDTKMSLESAHKNELENAFQRYDALGVRFEDIAGVDEVKEELLEVIDYLKNPKKYQDLGIFLPKGVLLIGPPGVGKTMIAKALASEARVPFFYESGSAFSQIYVGAGAKKVHELFMHAKRHAPSIIFIDEIDALGKARGGHRSDEREATLNQLLTEMDGFLQNDEVVVIGATNQMEVMDEALLRSKRFDRRIFISLPDLLERQSILEKLLENKKHALNYLKIAKICVGFSGAMLATLINESALNALKHQRTEIAESDILEVKDKIAYGKKKPQTLDENQKELVALYQSAKALSAYWLEIEFDKAPILGEFIAFNENKIHSESEIKNYIKVYLSGTIILELLYKERYSLSKQDLQKAKFLNEFMASELLLAPTKESLSVLYEEQLEFLKPQIAACKRLSVLLLEQEYLEHSNLYDLLNG | failed

From a protein production outcome set (Wang et al. 2014)
